Test results from publication PMC4063720.

Tests used:
[1] = target: Hfq (Pseudomonas aeruginosa PAO1) (UniProt Q9HUM0); test: competition; conditions: EMSA: 10 mM Tris-HCl pH 8.0, 10 mM MgCl2, 60 mM NaCl, 10 mM NaH2PO4, 10 mM DTT, 25 ng tRNA in 10 ul, 37 C 30 min; 4% PAGE in Tris-borate; filter binding buffer …
[2] = target: HfqY25D Y25D (Pseudomonas aeruginosa PAO1) (UniProt Q9HUM0); test: EMSA; conditions: EMSA: 10 mM Tris-HCl pH 8.0, 10 mM MgCl2, 60 mM NaCl, 10 mM NaH2PO4, 10 mM DTT, 25 ng tRNA in 10 ul, 37 C 30 min; 4% PAGE in Tris-borate; filter binding buffer …
[3] = target: Hfq (Pseudomonas aeruginosa PAO1) (UniProt Q9HUM0); test: EMSA; conditions: EMSA: 10 mM Tris-HCl pH 8.0, 10 mM MgCl2, 60 mM NaCl, 10 mM NaH2PO4, 10 mM DTT, 25 ng tRNA in 10 ul, 37 C 30 min; 4% PAGE in Tris-borate; filter binding buffer …
[4] = target: HfqK56A K56A (Pseudomonas aeruginosa PAO1) (UniProt Q9HUM0); test: EMSA; conditions: EMSA: 10 mM Tris-HCl pH 8.0, 10 mM MgCl2, 60 mM NaCl, 10 mM NaH2PO4, 10 mM DTT, 25 ng tRNA in 10 ul, 37 C 30 min; 4% PAGE in Tris-borate; filter binding buffer …
[5] = tested on: Hfq (Pseudomonas aeruginosa PAO1); test: filter binding; conditions: Hfq-hexamer concentration; duplicate; EMSA: 10 mM Tris-HCl pH 8.0, 10 mM MgCl2, 60 mM NaCl, 10 mM NaH2PO4, 10 mM DTT, 25 ng tRNA in 10 ul, 37 C 30 min; 4% PAGE in Tris-borate; filter binding buffer …
[6] = target: Hfq (Pseudomonas aeruginosa PAO1) (UniProt Q9HUM0); test: filter binding; conditions: EMSA: 10 mM Tris-HCl pH 8.0, 10 mM MgCl2, 60 mM NaCl, 10 mM NaH2PO4, 10 mM DTT, 25 ng tRNA in 10 ul, 37 C 30 min; 4% PAGE in Tris-borate; filter binding buffer …

Substance | binding [1] | binding [2] | binding [3] | binding [4] | Kd [5] [nM] | Kd [6] [nM]
GGCACAACAACAAUAACAAGCAACGACGAAGACAAUAAAAACAACACGUAACGACUCCAGCACAACAAAAACAAAAUCGCGGAGGCGCAGCUAACUGAUUCUUUUGGAGAGGAGUUGCUGUCGGGACCCGUCCCGCAGCCAGUCGGAAGAAG [CrcZ151 RNA] | binds | binds more weakly | binds | binds |  | 
amiE -134-+20 RNA |  |  |  |  | 67 | 
GAUCAGGUCGUGCGCAUCAGCGUCGAUGUCGCGGGACCGAACCUAACGCAUACGUACAGAGCAAAUGGGCUCUCCCGGGGUUACCCGGGAGGGCCUUUUUUCGUCCCGAAAAAAUAACAACAAGAGGUGAUAUCCAUGCGUCACGGCGAUAUUUCCUGCAGAAAAAA [amiE -134-+20 RNA] |  | no binding | binds | binds |  | 67
GCGUACAGGGAACACGCAACCCCGAAGGAUCGGGGAAGGGACGUCGCCAGGGAGGCGAUUCAUCAGGAUGAUGACGAGGGACUGAAGAGUGGGCGGGGUAAUACCCCGCCCCUUUUUUUUGCCUGCCGUUUUACUCGUCGCCCUGCAGUUU [RsmZ RNA] | no binding |  |  |  |  | 
